From patent publication US20250262210A1 (TRUSTEES OF COLUMBIA UNIVERSITY IN THE CITY OF NEW YORK, published 2025)

T1: LZTR1 R810W-FLAG (human, UniProt Q8N653 1-840)
T1 construct: Stably expressed in U87 cells by lentivirus; also called LZTR1-FLAG-R810W; LZTR1 RW; not shown: FLAG tag
T1 sequence (looked up): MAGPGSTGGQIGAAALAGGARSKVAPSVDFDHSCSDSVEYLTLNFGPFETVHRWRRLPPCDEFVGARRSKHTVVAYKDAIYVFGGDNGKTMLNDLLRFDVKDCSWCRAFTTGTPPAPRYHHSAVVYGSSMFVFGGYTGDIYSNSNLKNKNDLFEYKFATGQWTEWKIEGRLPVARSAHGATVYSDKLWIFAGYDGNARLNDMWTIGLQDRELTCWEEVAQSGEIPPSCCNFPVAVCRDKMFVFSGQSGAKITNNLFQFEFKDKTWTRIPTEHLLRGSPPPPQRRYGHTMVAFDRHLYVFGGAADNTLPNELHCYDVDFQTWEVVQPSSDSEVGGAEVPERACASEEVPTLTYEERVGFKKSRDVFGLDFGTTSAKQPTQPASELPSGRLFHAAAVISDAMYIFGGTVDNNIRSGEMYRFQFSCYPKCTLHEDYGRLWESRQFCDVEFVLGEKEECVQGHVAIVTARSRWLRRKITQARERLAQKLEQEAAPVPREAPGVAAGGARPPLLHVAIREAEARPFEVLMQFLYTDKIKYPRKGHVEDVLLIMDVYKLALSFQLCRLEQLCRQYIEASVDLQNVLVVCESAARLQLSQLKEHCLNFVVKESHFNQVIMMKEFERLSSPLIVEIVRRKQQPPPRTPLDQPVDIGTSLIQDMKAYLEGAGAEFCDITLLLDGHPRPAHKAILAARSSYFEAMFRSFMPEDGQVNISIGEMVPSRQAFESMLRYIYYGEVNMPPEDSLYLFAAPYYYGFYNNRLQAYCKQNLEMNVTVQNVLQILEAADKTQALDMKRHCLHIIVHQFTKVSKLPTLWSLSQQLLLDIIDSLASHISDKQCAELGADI

T2: LZTR1-FLAG (human, UniProt Q8N653 1-840)
T2 construct: Expressed in HEK 293T, HeLa or U87 cells; used as cell lysate; also called LZTR1 wild type-FLAG; LZTR1 WT; not shown: FLAG tag at the C-terminus
T2 sequence (looked up): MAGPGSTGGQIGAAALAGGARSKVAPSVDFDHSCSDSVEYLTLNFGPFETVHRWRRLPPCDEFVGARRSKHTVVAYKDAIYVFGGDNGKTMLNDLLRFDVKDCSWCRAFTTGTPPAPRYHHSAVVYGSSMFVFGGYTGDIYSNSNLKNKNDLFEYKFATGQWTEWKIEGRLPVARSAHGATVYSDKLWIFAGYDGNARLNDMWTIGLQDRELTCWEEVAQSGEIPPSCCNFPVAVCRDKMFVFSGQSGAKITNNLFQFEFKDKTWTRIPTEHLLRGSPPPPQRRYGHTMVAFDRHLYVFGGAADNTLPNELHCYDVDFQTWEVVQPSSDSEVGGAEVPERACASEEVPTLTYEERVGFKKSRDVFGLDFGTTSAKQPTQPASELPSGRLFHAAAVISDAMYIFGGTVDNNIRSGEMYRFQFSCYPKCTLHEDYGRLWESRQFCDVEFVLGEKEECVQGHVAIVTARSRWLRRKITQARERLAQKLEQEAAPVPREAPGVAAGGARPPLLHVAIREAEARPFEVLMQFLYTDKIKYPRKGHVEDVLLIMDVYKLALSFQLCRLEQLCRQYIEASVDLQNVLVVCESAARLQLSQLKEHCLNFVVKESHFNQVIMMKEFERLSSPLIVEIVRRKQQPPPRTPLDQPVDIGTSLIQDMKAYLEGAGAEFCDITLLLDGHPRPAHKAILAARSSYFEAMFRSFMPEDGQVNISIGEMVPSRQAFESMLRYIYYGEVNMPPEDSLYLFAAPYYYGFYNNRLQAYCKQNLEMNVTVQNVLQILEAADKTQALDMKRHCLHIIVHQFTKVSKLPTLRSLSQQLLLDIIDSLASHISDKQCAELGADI


Tests used:
LZTR1 R810W-FLAG = molecular target: T1, LZTR1 R810W-FLAG; experiment: IP/MS, LZTR1 R810W-FLAG, U87
Method in brief: (§1)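 Extracted peptides in 3% acetonitrile/0.1% formic acid ran on a 50 cm C18 column into an Orbitrap Fusion, with MaxQuant identification and spectral counting.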

LZTR1-FLAG = molecular target: T2, LZTR1-FLAG; experiment: IP/MS, LZTR1 wild type-FLAG, U87
Method in brief: as §1

Row | Binder | binding result (LZTR1 R810W-FLAG) | binding result (LZTR1-FLAG)
1 | TRAPPC12 (other, human, UniProt Q8WVT3 1-735, looked up) MEDAGGGEETPAPEAPHPPQLAPPEEQGLLFQEETIDLGGDEFGSEENETASEGSSPLADKLNEHMMESVLISDSPNSEGDAGDLGRVRDEAEPGGEGDPGPEPAGTPSPSGEADGDCAPEDAAPSSGGAPRQDAAREVPGSEAARPEQEPPVAEPVPVCTIFSQRAPPASGDGFEPQMVKSPSFGGASEASARTPPQVVQPSPSLSTFFGDTAASHSLASDFFDSFTTSAFISVSNPGAGSPAPASPPPLAVPGTEGRPEPVAMRGPQAAAPPASPEPFAHIQAVFAGSDDPFATALSMSEMDRRNDAWLPGEATRGVLRAVATQQRGAVFVDKENLTMPGLRFDNIQGDAVKDLMLRFLGEKAAAKRQVLNADSVEQSFVGLKQLISCRNWRAAVDLCGRLLTAHGQGYGKSGLLTSHTTDSLQLWFVRLALLVKLGLFQNAEMEFEPFGNLDQPDLYYEYYPHVYPGRRGSMVPFSMRILHAELQQYLGNPQESLDRLHKVKTVCSKILANLEQGLAEDGGMSSVTQEGRQASIRLWRSRLGRVMYSMANCLLLMKDYVLAVEAYHSVIKYYPEQEPQLLSGIGRISLQIGDIKTAEKYFQDVEKVTQKLDGLQGKIMVLMNSAFLHLGQNNFAEAHRFFTEILRMDPRNAVANNNAAVCLLYLGKLKDSLRQLEAMVQQDPRHYLHESVLFNLTTMYELESSRSMQKKQALLEAVAGKEGDSFNTQCLKLA | binds | binds
2 | UMPS (other, human, UniProt P11172 2-480, looked up) AVARAALGPLVTGLYDVQAFKFGDFVLKSGLSSPIYIDLRGIVSRPRLLSQVADILFQTAQNAGISFDTVCGVPYTALPLATVICSTNQIPMLIRRKETKDYGTKRLVEGTINPGETCLIIEDVVTSGSSVLETVEVLQKEGLKVTDAIVLLDREQGGKDKLQAHGIRLHSVCTLSKMLEILEQQKKVDAETVGRVKRFIQENVFVAANHNGSPLSIKEAPKELSFGARAELPRIHPVASKLLRLMQKKETNLCLSADVSLARELLQLADALGPSICMLKTHVDILNDFTLDVMKELITLAKCHEFLIFEDRKFADIGNTVKKQYEGGIFKIASWADLVNAHVVPGSGVVKGLQEVGLPLHRGCLLIAEMSSTGSLATGDYTRAAVRMAEEHSEFVVGFISGSRVSMKPEFLHLTPGVQLEAGGDNLGQQYNSPQEVIGKRGSDIIIVGRGIISAADRLEAAEMYRKAAWEAYLSRLGV | binds | binds
3 | UBXN6 (other, human, UniProt Q9BZV1 1-441, looked up) MKKFFQEFKADIKFKSAGPGQKLKESVGEKAHKEKPNQPAPRPPRQGPTNEAQMAAAAALARLEQKQSRAWGPTSQDTIRNQVRKELQAEATVSGSPEAPGTNVVSEPREEGSAHLAVPGVYFTCPLTGATLRKDQRDACIKEAILLHFSTDPVAASIMKIYTFNKDQDRVKLGVDTIAKYLDNIHLHPEEEKYRKIKLQNKVFQERINCLEGTHEFFEAIGFQKVLLPAQDQEDPEEFYVLSETTLAQPQSLERHKEQLLAAEPVRAKLDRQRRVFQPSPLASQFELPGDFFNLTAEEIKREQRLRSEAVERLSVLRTKAMREKEEQRGLRKYNYTLLRVRLPDGCLLQGTFYARERLGAVYGFVREALQSDWLPFELLASGGQKLSEDENLALNECGLVPSALLTFSWDMAVLEDIKAAGAEPDSILKPELLSAIEKLL | binds | binds
4 | UFL1 (other, human, UniProt O94874 2-794, looked up) ADAWEEIRRLAADFQRAQFAEATQRLSERNCIEIVNKLIAQKQLEVVHTLDGKEYITPAQISKEMRDELHVRGGRVNIVDLQQVINVDLIHIENRIGDIIKSEKHVQLVLGQLIDENYLDRLAEEVNDKLQESGQVTISELCKTYDLPGNFLTQALTQRLGRIISGHIDLDNRGVIFTEAFVARHKARIRGLFSAITRPTAVNSLISKYGFQEQLLYSVLEELVNSGRLRGTVVGGRQDKAVFVPDIYSRTQSTWVDSFFRQNGYLEFDALSRLGIPDAVSYIKKRYKTTQLLFLKAACVGQGLVDQVEASVEEAISSGTWVDIAPLLPTSLSVEDAAILLQQVMRAFSKQASTVVFSDTVVVSEKFINDCTELFRELMHQKAEKEMKNNPVHLITEEDLKQISTLESVSTSKKDKKDERRRKATEGSGSMRGGGGGNAREYKIKKVKKKGRKDDDSDDESQSSHTGKKKPEISFMFQDEIEDFLRKHIQDAPEEFISELAEYLIKPLNKTYLEVVRSVFMSSTTSASGTGRKRTIKDLQEEVSNLYNNIRLFEKGMKFFADDTQAALTKHLLKSVCTDITNLIFNFLASDLMMAVDDPAAITSEIRKKILSKLSEETKVALTKLHNSLNEKSIEDFISCLDSAAEACDIMVKRGDKKRERQILFQHRQALAEQLKVTEDPALILHLTSVLLFQFSTHSMLHAPGRCVPQIIAFLNSKIPEDQHALLVKYQGLVVKQLVSQSKKTGQGDYPLNNELDKEQEDVASTTRKELQELSSSIKDLVLKSRKSSVTEE | binds | binds
5 | UTP6 (other, human, UniProt Q9NYH9 1-597, looked up) MAEIIQERIEDRLPELEQLERIGLFSHAEIKAIIKKASDLEYKIQRRTLFKEDFINYVQYEINLLELIQRRRTRIGYSFKKDEIENSIVHRVQGVFQRASAKWKDDVQLWLSYVAFCKKWATKTRLSKVFSAMLAIHSNKPALWIMAAKWEMEDRLSSESARQLFLRALRFHPECPKLYKEYFRMELMHAEKLRKEKEEFEKASMDVENPDYSEEILKGELAWIIYKNSVSIIKGAEFHVSLLSIAQLFDFAKDLQKEIYDDLQALHTDDPLTWDYVARRELEIESQTEEQPTTKQAKAVEVGRKEERCCAVYEEAVKTLPTEAMWKCYITFCLERFTKKSNSGFLRGKRLERTMTVFRKAHELKLLSECQYKQLSVSLLCYNFLREALEVAVAGTELFRDSGTMWQLKLQVLIESKSPDIAMLFEEAFVHLKPQVCLPLWISWAEWSEGAKSQEDTEAVFKKALLAVIGADSVTLKNKYLDWAYRSGGYKKARAVFKSLQESRPFSVDFFRKMIQFEKEQESCNMANIREYYERALREFGSADSDLWMDYMKEELNHPLGRPENCGQIYWRAMKMLQGESAEAFVAKHAMHQTGHL | binds | binds
6 | TRIM47 (other, human, UniProt Q96LD4 1-638, looked up) MDGSGPFSCPICLEPLREPVTLPCGHNFCLACLGALWPHRGASGAGGPGGAARCPLCQEPFPDGLQLRKNHTLSELLQLRQGSGPGSGPGPAPALAPEPSAPSALPSVPEPSAPCAPEPWPAGEEPVRCDACPEGAALPAALSCLSCLASFCPAHLGPHERSPALRGHRLVPPLRRLEESLCPRHLRPLERYCRAERVCLCEACAAQEHRGHELVPLEQERALQEAEQSKVLSAVEDRMDELGAGIAQSRRTVALIKSAAVAERERVSRLFADAAAALQGFQTQVLGFIEEGEAAMLGRSQGDLRRQEEQRSRLSRARQNLSQVPEADSVSFLQELLALRLALEDGCGPGPGPPRELSFTKSSQAVRAVRDMLAVACVNQWEQLRGPGGNEDGPQKLDSEADAEPQDLESTNLLESEAPRDYFLKFAYIVDLDSDTADKFLQLFGTKGVKRVLCPINYPLSPTRFTHCEQVLGEGALDRGTYYWEVEIIEGWVSMGVMAEDFSPQEPYDRGRLGRNAHSCCLQWNGRSFSVWFHGLEAPLPHPFSPTVGVCLEYADRALAFYAVRDGKMSLLRRLKASRPRRGGIPASPIDPFQSRLDSHFAGLFTHRLKPAFFLESVDAHLQIGPLKKSCISVLKRR | binds | binds
